Source: the supplement of paper PMC9876800

Test system: peptide library, one residue held at a place counted from the S/T acceptor
Test: relative phosphorylation of the sub-library (ratio to the mean residue at this position); higher = residue favoured
Details: human
Method in brief: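 Purified recombinant kinases were reacted in 384-well plates with biotinylated degenerate peptide sub-libraries, each having one residue fixed at one position around a central Ser/Thr. The reaction mix contained 50 μM peptide plus 50 μM ATP spiked with γ-32P-ATP and ran for 90 min under kinase-specific conditions. Relative sub-library phosphorylation, taken from densitometry of phosphorimaged streptavidin membrane spots, is a ratio to the mean residue at that position.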

Chain of DSTYK, construct: Full length (Q6XUX3 whole entry, looked up): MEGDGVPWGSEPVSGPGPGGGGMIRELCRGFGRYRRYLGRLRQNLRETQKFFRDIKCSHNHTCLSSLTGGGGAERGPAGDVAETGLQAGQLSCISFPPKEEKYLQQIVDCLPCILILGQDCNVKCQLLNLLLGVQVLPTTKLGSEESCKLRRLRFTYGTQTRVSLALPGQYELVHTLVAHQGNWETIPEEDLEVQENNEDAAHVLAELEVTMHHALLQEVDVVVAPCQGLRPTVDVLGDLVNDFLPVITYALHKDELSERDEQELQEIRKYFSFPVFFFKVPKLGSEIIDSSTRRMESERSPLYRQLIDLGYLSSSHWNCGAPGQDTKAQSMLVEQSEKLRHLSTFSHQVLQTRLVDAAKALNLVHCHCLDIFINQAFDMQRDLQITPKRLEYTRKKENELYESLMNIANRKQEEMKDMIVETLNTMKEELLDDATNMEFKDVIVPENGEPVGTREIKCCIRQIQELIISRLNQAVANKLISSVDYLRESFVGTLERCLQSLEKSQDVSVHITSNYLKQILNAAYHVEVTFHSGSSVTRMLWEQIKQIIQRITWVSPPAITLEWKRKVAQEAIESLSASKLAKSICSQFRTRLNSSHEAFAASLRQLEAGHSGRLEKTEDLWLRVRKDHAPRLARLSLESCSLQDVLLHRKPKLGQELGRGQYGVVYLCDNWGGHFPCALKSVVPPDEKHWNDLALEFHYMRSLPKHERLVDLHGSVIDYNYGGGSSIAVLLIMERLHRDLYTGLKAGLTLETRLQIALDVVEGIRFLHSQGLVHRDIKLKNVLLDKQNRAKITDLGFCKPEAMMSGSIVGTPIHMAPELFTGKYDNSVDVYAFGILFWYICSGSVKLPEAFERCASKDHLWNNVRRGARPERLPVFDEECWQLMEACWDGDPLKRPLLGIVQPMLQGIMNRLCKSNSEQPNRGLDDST

DSTYK, construct: Full length (from UniProt Q6XUX3)
relative phosphorylation
Details	at +1	at +2	at +3	at +4	at -1	at -2	at -3	at -4	at -5
A fixed	0.815	1.14	0.976	1.07	1.15	0.947	0.937	1.05	1.27
D fixed	0.5	0.992	0.68	0.984	1.7	2.48	1.41	1.8	1.74
E fixed	0.639	1.52	0.934	1.05	2	2.13	0.887	1.52	1.43
F fixed	1.11	0.465	1.04	0.754	0.584	0.828	2.04	1.12	0.944
G fixed	1.19	0.729	0.872	1.12	0.813	1.11	0.697	1.34	1.31
H fixed	0.834	1.08	1.25	0.955	0.924	1.15	1.02	0.96	1.12
I fixed	1.52	0.48	0.915	0.663	0.577	0.701	1.07	0.721	0.619
K fixed	0.434	1.85	1.09	1.29	0.93	0.366	0.453	0.718	1.05
L fixed	1.54	0.461	1.1	0.754	0.97	1.25	1.7	0.862	0.732
M fixed	1.55	0.667	0.977	0.837	0.911	1.1	1.36	0.744	0.698
N fixed	0.878	1.3	0.83	1.11	1.48	1.03	0.676	0.908	0.935
P fixed	0.218	0.587	0.738	1.45	0.324	0.228	0.513	0.777	0.916
Q fixed	1.21	1.29	1.02	1.15	1.31	1.04	0.692	0.793	0.773
R fixed	0.499	2.58	1.3	1.23	1.2	0.467	0.471	0.639	0.835
V fixed	1.65	0.685	1.08	0.734	0.667	0.765	0.6	0.598	0.733
W fixed	0.993	0.595	1.09	1.04	0.682	0.717	1.29	1.63	1.17
Y fixed	1.41	0.569	1.11	0.797	0.774	0.69	1.19	0.819	0.722
pThr fixed	1.23	1.43	0.787	1.09	0.845	1.66	0.996	1.03	1.04
pTyr fixed	2.22	0.801	0.882	0.912	1.84	1.21	1.13	0.961	1.09
